According to patent US20130129753A1 (Pfizer, published 2013):

T1: IL-13Rα2 receptor (human, UniProt Q14627 27-380)
T1 sequence (looked up): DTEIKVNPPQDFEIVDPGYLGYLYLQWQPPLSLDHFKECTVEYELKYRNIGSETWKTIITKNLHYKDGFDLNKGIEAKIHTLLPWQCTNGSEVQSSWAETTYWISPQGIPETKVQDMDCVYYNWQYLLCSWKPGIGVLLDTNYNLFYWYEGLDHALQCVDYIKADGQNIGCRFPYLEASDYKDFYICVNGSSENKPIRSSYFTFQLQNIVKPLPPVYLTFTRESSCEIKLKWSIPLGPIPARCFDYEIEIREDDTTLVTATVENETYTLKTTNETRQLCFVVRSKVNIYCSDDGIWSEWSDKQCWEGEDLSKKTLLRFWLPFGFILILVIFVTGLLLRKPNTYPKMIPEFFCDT

B1: IL13Ra2-AB08-v1010-hG1-(C)_mcValCitPABC-#54 (antibody, V domains shown)
VH: EVQLVESGGGLVQPGGSLRLSCAASGFTFSRNGMSWVRQAPGKGLEWVATVSSGGSYIYYADSVKGRFTISRDNAKNSLYLQMNSLRAEDTAVYYCARQGTTALATRFFDVWGQGTLVTVSS
VL: DIQMTQSPSSLSASVGDRVTITCKASQDVGTAVAWYQQKPGKAPKLLIYSASYRSTGVPSRFSGSGSGTDFTLTISSLQPEDFATYYCQHHYSAPWTFGGGTKVEIKT
modifications: drug-linker mcValCitPABC-#54 on cysteine (C), positions not given; drug-linker mcValCitPABC-#54 on cysteine (C), positions not given; DAR 3.2 per antibody
B2: IL13Ra2-AB08-v1010-hG1-(C)_mcValCitPABC-#226 (antibody, V domains shown)
VH: EVQLVESGGGLVQPGGSLRLSCAASGFTFSRNGMSWVRQAPGKGLEWVATVSSGGSYIYYADSVKGRFTISRDNAKNSLYLQMNSLRAEDTAVYYCARQGTTALATRFFDVWGQGTLVTVSS
VL: DIQMTQSPSSLSASVGDRVTITCKASQDVGTAVAWYQQKPGKAPKLLIYSASYRSTGVPSRFSGSGSGTDFTLTISSLQPEDFATYYCQHHYSAPWTFGGGTKVEIKT
modifications: drug-linker mcValCitPABC-#226 on cysteine (C), positions not given; drug-linker mcValCitPABC-#226 on cysteine (C), positions not given; DAR 3 per antibody
B3: IL13Ra2-AB08-v1010-hG1-(C)_mc-0#118 (antibody, V domains shown)
VH: EVQLVESGGGLVQPGGSLRLSCAASGFTFSRNGMSWVRQAPGKGLEWVATVSSGGSYIYYADSVKGRFTISRDNAKNSLYLQMNSLRAEDTAVYYCARQGTTALATRFFDVWGQGTLVTVSS
VL: DIQMTQSPSSLSASVGDRVTITCKASQDVGTAVAWYQQKPGKAPKLLIYSASYRSTGVPSRFSGSGSGTDFTLTISSLQPEDFATYYCQHHYSAPWTFGGGTKVEIKT
modifications: drug-linker mc-0#118 on cysteine (C), positions not given; drug-linker mc-0#118 on cysteine (C), positions not given; DAR 3.2 per antibody
B4: IL13Ra2-AB08-v1010-hG1-(C)_mc-#117 (antibody, V domains shown)
VH: EVQLVESGGGLVQPGGSLRLSCAASGFTFSRNGMSWVRQAPGKGLEWVATVSSGGSYIYYADSVKGRFTISRDNAKNSLYLQMNSLRAEDTAVYYCARQGTTALATRFFDVWGQGTLVTVSS
VL: DIQMTQSPSSLSASVGDRVTITCKASQDVGTAVAWYQQKPGKAPKLLIYSASYRSTGVPSRFSGSGSGTDFTLTISSLQPEDFATYYCQHHYSAPWTFGGGTKVEIKT
modifications: drug-linker mc-#117 on cysteine (C), positions not given; drug-linker mc-#117 on cysteine (C), positions not given; DAR 3.3 per antibody
B5: IL13Ra2-AB08-v1010-hG1-(C)_mc-#115 (antibody, V domains shown)
VH: EVQLVESGGGLVQPGGSLRLSCAASGFTFSRNGMSWVRQAPGKGLEWVATVSSGGSYIYYADSVKGRFTISRDNAKNSLYLQMNSLRAEDTAVYYCARQGTTALATRFFDVWGQGTLVTVSS
VL: DIQMTQSPSSLSASVGDRVTITCKASQDVGTAVAWYQQKPGKAPKLLIYSASYRSTGVPSRFSGSGSGTDFTLTISSLQPEDFATYYCQHHYSAPWTFGGGTKVEIKT
modifications: drug-linker mc-#115 on cysteine (C), positions not given; drug-linker mc-#115 on cysteine (C), positions not given; DAR 4.3 per antibody
B6: IL13Ra2-AB08-v1010-hG1-(C)_Mal(H2O)Peg6C2-0#118 (antibody, V domains shown)
VH: EVQLVESGGGLVQPGGSLRLSCAASGFTFSRNGMSWVRQAPGKGLEWVATVSSGGSYIYYADSVKGRFTISRDNAKNSLYLQMNSLRAEDTAVYYCARQGTTALATRFFDVWGQGTLVTVSS
VL: DIQMTQSPSSLSASVGDRVTITCKASQDVGTAVAWYQQKPGKAPKLLIYSASYRSTGVPSRFSGSGSGTDFTLTISSLQPEDFATYYCQHHYSAPWTFGGGTKVEIKT
modifications: drug-linker Mal(H2O)Peg6C2-0#118 on cysteine (C), positions not given; drug-linker Mal(H2O)Peg6C2-0#118 on cysteine (C), positions not given; DAR 2.9 per antibody
B7: IL13Ra2-AB08-v1010-hG1-(C)_mcValCitPABC-#112 (antibody, V domains shown)
VH: EVQLVESGGGLVQPGGSLRLSCAASGFTFSRNGMSWVRQAPGKGLEWVATVSSGGSYIYYADSVKGRFTISRDNAKNSLYLQMNSLRAEDTAVYYCARQGTTALATRFFDVWGQGTLVTVSS
VL: DIQMTQSPSSLSASVGDRVTITCKASQDVGTAVAWYQQKPGKAPKLLIYSASYRSTGVPSRFSGSGSGTDFTLTISSLQPEDFATYYCQHHYSAPWTFGGGTKVEIKT
modifications: drug-linker mcValCitPABC-#112 on cysteine (C), positions not given; drug-linker mcValCitPABC-#112 on cysteine (C), positions not given; DAR 4 per antibody
B8: IL13Ra2-AB08-v1010-hG1-(C)_MalPeg6C2-#117 (antibody, V domains shown)
VH: EVQLVESGGGLVQPGGSLRLSCAASGFTFSRNGMSWVRQAPGKGLEWVATVSSGGSYIYYADSVKGRFTISRDNAKNSLYLQMNSLRAEDTAVYYCARQGTTALATRFFDVWGQGTLVTVSS
VL: DIQMTQSPSSLSASVGDRVTITCKASQDVGTAVAWYQQKPGKAPKLLIYSASYRSTGVPSRFSGSGSGTDFTLTISSLQPEDFATYYCQHHYSAPWTFGGGTKVEIKT
modifications: drug-linker MalPeg6C2-#117 on cysteine (C), positions not given; drug-linker MalPeg6C2-#117 on cysteine (C), positions not given; DAR 3.3 per antibody
B9: Notch-28-v1010-hG1-(C)_mcValCitPABC-#54 (antibody, human IgG1, kappa, V domains shown)
VH: EVQLVESGGGLVQPGGSLRLSCAASGFTFRDYGMTWVRQAPGKGLEWVAYISSGSNYIYYAEAVKGRFTISRDNAKNSLYLQMNSLRAEDTAVYYCARRGPFVLDAWGQGTLVTVSS
VL: DIQMTQSPSSLSASVGDRVTITCKASQSINRYLHWYQQKPGKAPKLLIYNANGLQTGVPSRFSGSGSGTDFTLTISSLQPEDFATYYCLQHNTWPDTFGGGTKVEIKR
modifications: drug-linker mcValCitPABC-#54 on cysteine (C), positions not given; drug-linker mcValCitPABC-#54 on cysteine (C), positions not given; DAR 3.9 per antibody
B10: Notch-28-v1010-hG1-(C)_mcValCitPABC-#112 (antibody, human IgG1, kappa, V domains shown)
VH: EVQLVESGGGLVQPGGSLRLSCAASGFTFRDYGMTWVRQAPGKGLEWVAYISSGSNYIYYAEAVKGRFTISRDNAKNSLYLQMNSLRAEDTAVYYCARRGPFVLDAWGQGTLVTVSS
VL: DIQMTQSPSSLSASVGDRVTITCKASQSINRYLHWYQQKPGKAPKLLIYNANGLQTGVPSRFSGSGSGTDFTLTISSLQPEDFATYYCLQHNTWPDTFGGGTKVEIKR
modifications: drug-linker mcValCitPABC-#112 on cysteine (C), positions not given; drug-linker mcValCitPABC-#112 on cysteine (C), positions not given; DAR 3.9 per antibody
B11: Notch-75-v1913-hG1-(C)_mcValCitPABC-#54 (antibody, human IgG1, kappa, V domains shown)
VH: EVQLVESGGGLVQPGGSLRLSCAASGYAFTDYWMTWVRQAPGKGLEWVAEISPNSGGTNFNEKFKGRFTISVDNAKNSLYLQMNSLRAEDTAVYYCARGEIRYNWFAYWGQGTLVTVSS
VL: DIQMTQSPSSLSASVGDRVTITCKASQNVGNNIAWYQQKPGKAPKLLIYYASNRYTGVPSRFSGSGYGTDFTLTISSLQPEDFATYYCQRLYNSPFTFGGGTKVEIKR
modifications: drug-linker mcValCitPABC-#54 on cysteine (C), positions not given; drug-linker mcValCitPABC-#54 on cysteine (C), positions not given; DAR 3.8 per antibody
B12: Notch-75-v1913-hG1-(C)_mcValCitPABC-#112 (antibody, human IgG1, kappa, V domains shown)
VH: EVQLVESGGGLVQPGGSLRLSCAASGYAFTDYWMTWVRQAPGKGLEWVAEISPNSGGTNFNEKFKGRFTISVDNAKNSLYLQMNSLRAEDTAVYYCARGEIRYNWFAYWGQGTLVTVSS
VL: DIQMTQSPSSLSASVGDRVTITCKASQNVGNNIAWYQQKPGKAPKLLIYYASNRYTGVPSRFSGSGYGTDFTLTISSLQPEDFATYYCQRLYNSPFTFGGGTKVEIKR
modifications: drug-linker mcValCitPABC-#112 on cysteine (C), positions not given; drug-linker mcValCitPABC-#112 on cysteine (C), positions not given; DAR 4.2 per antibody
B13: humanized antibody hu08 (antibody, V domains shown)
VH: EVQLVESGGGLVQPGGSLRLSCAASGFTFSRNGMSWVRQAPGKGLEWVATVSSGGSYIYYADSVKGRFTISRDNAKNSLYLQMNSLRAEDTAVYYCARQGTTALATRFFDVWGQGTLVTVSS
VL: DIQMTQSPSSLSASVGDRVTITCKASQDVGTAVAWYQQKPGKAPKLLIYSASYRSTGVPSRFSGSGSGTDFTLTISSLQPEDFATYYCQHHYSAPWTFGGGTKVEIKT
notes: Unconjugated antibody; also called hu08v1.0/1.0; IL13Ra2-AB08-v1010-hG1

molecular target: T1, IL-13Rα2 receptor; assay: cell-based or functional assay

First: B1
Second: B2
The “IC50 (ng Ab/mL), viability of A375 cells” value of the first is higher: 3.8 ng Ab/mL for the first, 2.9 ng Ab/mL for the second.

First: B3
Second: B4
The “IC50 (ng Ab/mL), viability of A375 cells” value of the first is lower: 2.1 ng Ab/mL for the first, 2.4 ng Ab/mL for the second.

First: B5
Second: B6
The “IC50 (ng Ab/mL), viability of A375 cells” value of the first is lower: 2.2 ng Ab/mL for the first, 4.9 ng Ab/mL for the second.

Compared with B7, B8 is higher in “IC50 (ng Ab/mL), viability of A375 cells” value: 2.2 ng Ab/mL for the first, 3.4 ng Ab/mL for the second.

Compared with B1, B2 is lower in “IC50 (ng Ab/mL), viability of PC3MM2 cells” value (shortened to “IC50 … of PC3MM2 cells”): 2.5 ng Ab/mL for the first, 1.5 ng Ab/mL for the second.

First: B3
Second: B4
The “IC50 … of PC3MM2 cells” value of the first is higher: 1.3 ng Ab/mL for the first, 1.1 ng Ab/mL for the second.

Compared with B5, B6 is higher in “IC50 … of PC3MM2 cells” value: 1.2 ng Ab/mL for the first, 2.9 ng Ab/mL for the second.

Compared with B7, B8 is higher in “IC50 … of PC3MM2 cells” value: 1.2 ng Ab/mL for the first, 3.5 ng Ab/mL for the second.

molecular target: Notch receptor (human); assay: cell-based or functional assay

Compared with B9, B10 is lower in “IC50 (ng Ab/mL), MTS viability of HCC2429 cells (repeat 1)” value: 473 ng Ab/mL for the first, 148 ng Ab/mL for the second.

Going from B11 to B12, the “IC50 (ng Ab/mL), MTS viability of HCC2429 cells (repeat 1)” value falls from 611 ng Ab/mL to 214 ng Ab/mL.

Compared with B9, B10 is lower in “IC50 (ng Ab/mL), MTS viability of HCC2429 cells (repeat 2)” value: 2940 ng Ab/mL for the first, 2050 ng Ab/mL for the second.

First: B11
Second: B12
The “IC50 (ng Ab/mL), MTS viability of HCC2429 cells (repeat 2)” value of the first is higher: 3300 ng Ab/mL for the first, 630 ng Ab/mL for the second.

First: B9
Second: B10
The “IC50 (ng Ab/mL), MTS viability of MDA-MB-468/hNotch cells (repeat 1)” value of the first is higher: 3.2 ng Ab/mL for the first, 1.3 ng Ab/mL for the second.

Compared with B11, B12 is lower in “IC50 (ng Ab/mL), MTS viability of MDA-MB-468/hNotch cells (repeat 1)” value: 37 ng Ab/mL for the first, 26 ng Ab/mL for the second.

B9 and B10 are the same in “IC50 (ng Ab/mL), MTS viability of MDA-MB-468/hNotch cells (repeat 2)” value: 3 ng Ab/mL for the first, 3 ng Ab/mL for the second.

Going from B11 to B12, the “IC50 (ng Ab/mL), MTS viability of MDA-MB-468/hNotch cells (repeat 2)” value falls from 36 ng Ab/mL to 25 ng Ab/mL.

First: B9
Second: B11
The “IC50 (ng Ab/mL), MTS viability of MDA-MB-468 cells” value of the first is lower: 6540 ng Ab/mL for the first, 7000 ng Ab/mL for the second.

Compared with B9, B10 is lower in “IC50 (ng Ab/mL), MTS viability of OVCAR3 cells” value: 306 ng Ab/mL for the first, 17 ng Ab/mL for the second.

Compared with B11, B12 is lower in “IC50 (ng Ab/mL), MTS viability of OVCAR3 cells” value: 515 ng Ab/mL for the first, 254 ng Ab/mL for the second.

Compared with B9, B11 is lower in “IC50 (ng Ab/mL), MTS viability of U2OS/hNotch cells” value: 1330 ng Ab/mL for the first, 523 ng Ab/mL for the second.

molecular target: T1, IL-13Rα2 receptor; assay: statement in the example section; no binding assay described

B13: binds.
